Measurements: article PMC4837482, “The complex binding mode of the peptide hormone H2 relaxin to its receptor RXFP1” (Nature Communications, 2016)
Numbering of substitutions follows the chain as printed.

Legend:
Assay in all cases: cAMP activity assay (pCRE β-galactosidase reporter), transfected HEK293T cells
Assay type in all cases: cell-based
RXFP1 A55S = biological target: T1, RXFP1 A55S (Homo sapiens, UniProt Q9HBX9, A77S); settings: construct A55S, ±s.e.m.
T1 construct: cells expressing full-length RXFP1 and mutants; expressed in transfected cells; host or cells: HEK293T
T1 sequence (Q9HBX9 23-757 A77S limits assumed): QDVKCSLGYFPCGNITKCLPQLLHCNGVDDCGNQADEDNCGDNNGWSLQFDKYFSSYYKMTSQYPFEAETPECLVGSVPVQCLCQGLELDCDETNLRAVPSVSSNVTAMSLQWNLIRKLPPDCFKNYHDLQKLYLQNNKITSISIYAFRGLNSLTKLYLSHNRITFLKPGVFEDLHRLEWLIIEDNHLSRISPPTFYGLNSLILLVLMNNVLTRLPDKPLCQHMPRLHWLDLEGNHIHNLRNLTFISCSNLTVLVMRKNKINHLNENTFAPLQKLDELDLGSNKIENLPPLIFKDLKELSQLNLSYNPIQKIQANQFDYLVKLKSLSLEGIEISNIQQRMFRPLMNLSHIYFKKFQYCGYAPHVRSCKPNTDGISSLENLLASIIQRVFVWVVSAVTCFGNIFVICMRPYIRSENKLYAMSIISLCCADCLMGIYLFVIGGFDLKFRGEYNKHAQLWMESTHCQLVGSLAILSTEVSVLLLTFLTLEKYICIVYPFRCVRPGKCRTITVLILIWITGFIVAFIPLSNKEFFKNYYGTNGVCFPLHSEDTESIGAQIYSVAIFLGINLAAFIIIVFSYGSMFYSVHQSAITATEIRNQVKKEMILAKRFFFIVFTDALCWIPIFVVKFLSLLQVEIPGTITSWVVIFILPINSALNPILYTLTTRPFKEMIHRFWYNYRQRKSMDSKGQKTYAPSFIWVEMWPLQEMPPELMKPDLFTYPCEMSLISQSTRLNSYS
Protocol: (§1) Media was aspirated and plates stored frozen at −80 °C overnight. […] H2 relaxin dilutions were prepared in minimal media containing 1% DMSO. Positive and negative control stimulations were achieved by incubation with 5 μM Forskolin and minimal media/1% DMSO, respectively. Plates were developed by 10 min of incubation in 25 μl of lysis buffer 1 (100 mM Na2HPO4, pH 8.0, 0.2 mM MgSO4 0.01 mM MnCl2); a further 10 min of incubation in 100 μl of buffer 2 (100 mM Na2HPO4, pH 8.0, 2 mM MgSO4, 0.1 mM MnCl2, 0.5% Triton X-100, 40 mM β-mercaptoethanol); then to each well 25 μl of the β-galactosidase substrate, chlorophenol red-β-D-galactopyranoside (Roche) was added. All incubation steps were conducted with orbital shaking. Color-change was monitored and readings were taken on a Benchmark Plus Microplate Reader (Bio-Rad) at 570 nm. A minimum of three separate experiments were performed, each of them in triplicate, and data were pooled and presented as percentages of the maximum response induced by 5 μM Forskolin±s.e.m.

RXFP1 E67A^ins = biological target: T2, RXFP1 E67A^ins (Homo sapiens, UniProt Q9HBX9, INS89A); settings: construct E67A^ins, ±s.e.m.
T2 construct: transiently transfected human embryonic kidney (HEK) 293T cells expressing full-length RXFP1 and mutants; expressed in transfected cells; host or cells: HEK293T
T2 sequence (Q9HBX9 with tags, fused parts or gaps INS89A limits assumed): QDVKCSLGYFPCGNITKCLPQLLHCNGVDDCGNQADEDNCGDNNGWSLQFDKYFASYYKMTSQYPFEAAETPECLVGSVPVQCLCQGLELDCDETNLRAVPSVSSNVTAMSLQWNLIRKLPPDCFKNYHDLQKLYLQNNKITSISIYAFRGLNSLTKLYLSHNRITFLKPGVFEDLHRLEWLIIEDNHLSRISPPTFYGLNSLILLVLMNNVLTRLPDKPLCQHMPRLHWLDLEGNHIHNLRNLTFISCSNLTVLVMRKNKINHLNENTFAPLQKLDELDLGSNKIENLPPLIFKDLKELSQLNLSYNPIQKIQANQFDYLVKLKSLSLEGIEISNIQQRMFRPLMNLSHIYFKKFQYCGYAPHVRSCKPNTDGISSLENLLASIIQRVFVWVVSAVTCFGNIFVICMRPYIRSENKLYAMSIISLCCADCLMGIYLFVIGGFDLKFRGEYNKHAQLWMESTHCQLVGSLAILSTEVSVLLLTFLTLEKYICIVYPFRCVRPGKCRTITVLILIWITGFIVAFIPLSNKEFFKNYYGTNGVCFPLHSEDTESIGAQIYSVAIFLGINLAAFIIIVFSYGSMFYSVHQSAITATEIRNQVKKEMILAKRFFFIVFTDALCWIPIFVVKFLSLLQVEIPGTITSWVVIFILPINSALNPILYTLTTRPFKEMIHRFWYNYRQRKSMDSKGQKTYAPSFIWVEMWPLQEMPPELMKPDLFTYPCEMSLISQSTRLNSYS
Protocol: as §1

RXFP1 G41D42-AA = biological target: T3, RXFP1 G41D42-AA (Homo sapiens, UniProt Q9HBX9, D64A/G63A)
T3 construct: transiently transfected human embryonic kidney (HEK) 293T cells expressing full-length RXFP1 and mutants; expressed in transfected cells; host or cells: HEK293T
T3 sequence (Q9HBX9 23-757 G63A/D64A limits assumed): T1 sequence (Q9HBX9 23-757 A77S limits assumed) with G41A, D42A, S55A
Protocol: as §1

[1] = percentage of maximum response to 5 μM Forskolin

Substance: H2 relaxin: two-chain 6-kDa peptide hormone structurally related to insulin; recombinant human gene-2 H2 relaxin provided by Corthera
- H2 relaxin pEC50 (RXFP1 A55S; cAMP reporter): 11.39±0.13 (5)
- H2 relaxin Emax (RXFP1 A55S; [1]): 154.43±39.77 (5) %
- H2 relaxin pEC50 (RXFP1 E67A^ins; cAMP reporter): 11.32±0.04 (3)
- H2 relaxin Emax (RXFP1 E67A^ins; [1]): 110.15±6.43(3) %
- loss of H2 relaxin-stimulated cAMP activity (RXFP1 G41D42-AA; G41A/D42A RXFP1 versus wild-type RXFP1): 5,000 fold
- H2 relaxin Emax (RXFP1 G41D42-AA; construct G41D42-AA, percentage of maximum response to 5 μM Forskolin, ±s.e.m.): 106.8±46.67 (3) %
